Laboratory results reported in US20250011456A1, “ANTIBODIES AGAINST CD14 AND USES THEREOF” (Villanelle Life Science Inc, priority 2023, published 2025).

Key:
[1] = biological target: T1, human CD14 antigen (B294801, histidine tagged) (Homo sapiens, UniProt P08571); assay: Biacore 8K kinetic and affinity test of antibodies without PTM sites (Example 9); type: binding; conditions: Biacore 8K, analyte B294801 0.1953125-25 nM, capture conc. 1 μg/mL
T1 construct: His; purchased Shanghai BaiYing Biotechnology Co., Ltd B294801 (Batch number 20200518A22)
T1 sequence (P08571 20-345): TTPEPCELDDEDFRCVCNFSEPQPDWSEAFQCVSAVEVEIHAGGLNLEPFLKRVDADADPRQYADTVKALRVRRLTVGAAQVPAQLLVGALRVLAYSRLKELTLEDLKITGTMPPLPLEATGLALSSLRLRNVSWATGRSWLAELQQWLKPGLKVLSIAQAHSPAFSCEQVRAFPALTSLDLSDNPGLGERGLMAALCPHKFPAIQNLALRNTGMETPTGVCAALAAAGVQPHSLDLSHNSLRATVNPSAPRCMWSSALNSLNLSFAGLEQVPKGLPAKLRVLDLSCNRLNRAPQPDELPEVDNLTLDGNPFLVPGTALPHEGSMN
Protocol: Experimental reagents and consumables included cell culture fluid, electroporation buffer, CHO cells, 1 mL electroporation cuvette, Protein A chip (Cytiva, 29127556), various sizes of shake flasks, and various sizes of pipettes. Main instruments and equipment included a shaker (Taicang Huamei), centrifuge (Baiyang), ultrapure water system (Millipore), constant temperature incubator (BLUE PARD), electroporator, water bath, Biacore 8K (Cytiva), and ELISA system (Molecular Devices).
The antigen used for the binding affinity measurements is B294801. This antigen is a human CD14 antigen that is histidine tagged. D6DD3D001 is a mouse antibody, and MPDDAD001-MPDDAD005 are humanized antibodies. The antibodies are recombinant, human (hFc Tag). Selected parameters of the experimental samples are shown in Table 9-1, with MW referring to molecular weight in kDa.
The Biacore 8K platform was used to test the kinetic and affinity properties of the antibody, operating according to system instructions and indications.
Results of Affinity Detection. The affinity of the six antibodies was measured at saturation concentration. For the experiments, the analyte solution comprises the B294801 antigen with an analyte concentration of 0.1953125 nM, 0.390625 nM, 0.78125 nM, 1.5625 nM, 3.125 nM, 6.25 nM, 12.5 nM, and 25 nM. Change factor is described above.

[2] = biological target: T2, recombinant human CD14 (B294801, histidine tagged) (Homo sapiens, UniProt P08571); assay: Biacore 8K kinetic and affinity test of humanized antibodies (Example 8); type: binding; conditions: Biacore 8K, analyte B294801 0.78125-25 nM, capture 1 μg/mL
T2 construct: His; purchased Shanghai BaiYing Biotechnology Co., Ltd B294801 (Batch number 20200518A22)
T2 sequence (P08571 20-345): T1 sequence (P08571 20-345)
Protocol: Experimental reagents and consumables included Protein A chip (Cytiva, 29127556). Main instruments and equipment included Biacore 8K (Cytiva), shaker (Taicang Huamei), ELISA system (Molecular Devices), centrifuge (Baiyang), ultrapure water system (Millipore), and thermostatic incubator (BLUE PARD).
The antigen used for the binding affinity measurements is B294801. This antigen is a recombinant human CD14 antigen that is histidine tagged and has a molecular weight of 36 kDa. B294801 was purchased from Shanghai BaiYing Biotechnology Co., Ltd (name: Recombinant Human CD14/His Protein; Batch number 20200518A22). D6DD3D001 is a mouse antibody, and D6DD3D002-D6DD3D0016 are humanized antibodies. The antibodies are recombinant, human (hFc Tag). Selected parameters of the experimental samples are shown in Table 8-1, with MW referring to molecular weight in kiloDaltons (kDa).
The Biacore 8K platform was used to test the kinetic and affinity properties of the antibody. The operation was carried out according to the system instructions and indications.
The equilibrium dissociation constant (KD) reflects the affinity of the antibody to the target, with a smaller value indicating a stronger affinity. KD (in units of molarity) is determined by the ratio of the dissociation rate constant (koff) and the association rate constant (kon), that is, KD=Koff/kon.
15 humanized antibodies (numbered D6DD3D002-D6DD3D0016) and 1 mouse antibody (number D6DD3D001) were tested. For the experiments, the analyte solution comprises the B294801 antigen with an analyte concentration of 0.78125 nM, 1.5625 nM, 3.125 nM, 6.25 nM, 12.5 nM, and 25 nM. The capture concentration was 1 μg/mL. In Table 8-3, the change factor is the ratio of the equilibrium dissociation constant KD of the humanized to mouse antibody, and reflects the change in affinity after humanization.

Koff [1]: 0.00108 s⁻¹
kon (1:1 binding) [1]: 1.25e+06 M⁻¹ s⁻¹
koff (1:1 binding) [2]: 0.000858 s⁻¹
kon (1:1 binding) [2]: 1.77e+06 M⁻¹ s⁻¹
B1: D6DD3D001: mouse-derived anti-CD14 IgG1 antibody; VH SEQ ID NO: 1, VL SEQ ID NO: 3, heavy chain SEQ ID NO: 2, light chain SEQ ID NO: 4 (antibody)
heavy: DVQLQQSGPGLVKPSQSLSLTCTVTGYSITSDSAWNWIRQFPGNRLEWMGYISYSGSTSYNPSLKSRISITRDTSKNQFFLQLNSVTTEDTATYYCVRGLRFAYWGQGTLVTVSSPSVFLFPPKPKDTLMISRTPEVTCVVVDVSHEDPEVKFNWYVDGVEVHNAKTKPREEQYNSTYRVVSVLTVLHQDWLNGKEYKCKVSNKALPAPIEKTISKAKGQPREPQVYTLPPSREEMTKNQVSLTCLVKGFYPSDIAVEWESNGQPENNYKTTPPVLDSDGSFFLYSKLTVDKSRWQQGNVFSCSVMHEALHNHYTQKSLSLSPGK
light: DIVLTQSPASLAVSLGQRATISCRASESVDSYVNSFLHWYQQKPGQPPKLLIYRASNLQSGIPARFSGSGSRTDFTLTINPVEADDVATYYCQQSNEDPYTFGGGTKLEIKRTVAAPSVFIFPPSDEQLKSGTASVVCLLNNFYPREAKVQWKVDNALQSGNSQESVTEQDSKDSTYSLSSTLTLSKADYEKHKVYACEVTHQGLSSPVTKSFNRGEC
